Measurements: US8840891 (RSR, dated 2014)
Read-outs that look alike come from different tables or passages of the source. Blank lines part the entries; values can stand above or below the molecule they belong to.

Columns and labels:
[1] = target: TSHR with Arg80 mutated to Aspartic acid (human) (UniProt P16473); assay: cell-based or functional assay
[2] = target: wild type human TSHR (human) (UniProt P16473); assay: cell-based or functional assay
[3] = target: TSHR with Thr104 mutated to Alanine (human) (UniProt P16473); assay: cell-based or functional assay
[4] = target: wild type human TSHR (human) (UniProt P16473); assay: cell-based or functional assay; remark: listed apart in the source
[5] = target: TSHR with Phe134 mutated to Alanine (human) (UniProt P16473); assay: cell-based or functional assay
[6] = target: wild type human TSHR (human) (UniProt P16473); assay: cell-based or functional assay; remark: listed apart in the source
[7] = target: TSHR with Trp258 mutated to Alanine (human) (UniProt P16473); assay: cell-based or functional assay
[8] = target: wild type human TSHR (human) (UniProt P16473); assay: cell-based or functional assay; remark: listed apart in the source
[9] = target: TSHR coated onto tubes (TSHR coated tubes) (human) (UniProt P16473); assay: TSHR coated tubes
[10] = target: TSHR with His105 mutated to Alanine expressed on CHO cells (human) (UniProt P16473); assay: cell-based or functional assay
[11] = target: wild type human TSHR (thyrotropin receptor) expressed on CHO cells (human) (UniProt P16473); assay: cell-based or functional assay
[12] = target: TSHR with Glu178 mutated to Alanine expressed on CHO cells (human) (UniProt P16473); assay: cell-based or functional assay
[13] = target: wild type human TSHR (thyrotropin receptor) expressed on CHO cells (human) (UniProt P16473); assay: cell-based or functional assay; remark: listed apart in the source
[14] = target: TSHR with Lys209 mutated to Alanine expressed on CHO cells (human) (UniProt P16473); assay: cell-based or functional assay
[15] = target: wild type human TSHR (thyrotropin receptor) expressed on CHO cells (human) (UniProt P16473); assay: cell-based or functional assay; remark: listed apart in the source
[16] = target: TSHR coated onto tubes (TSHR coated tubes) (human) (UniProt P16473); assay: TSHR coated tubes, in the presence of HBD pool (Table 5)

Molecule: 5C9 IgG (antibody)
Mutated/wild type (%); 5C9 0.01 µg/mL + TSH [1]: 161%
Mutated/wild type (%); 5C9 0.1 µg/mL + TSH [1]: 70%
Mutated/wild type (%); 5C9 1.0 µg/mL + TSH [1]: 73%
Mutated/wild type (%); 5C9 10 µg/mL + TSH [1]: 66%
Mutated/wild type (%); 5C9 100 µg/mL + TSH [1]: 79%
Mutated/wild type (%); 5C9 100 µg/mL only [1]: 174%
cyclic AMP; 5C9 0.01 µg/mL + TSH (fmol/cell well) [1]: 21000
cyclic AMP; 5C9 0.1 µg/mL + TSH (fmol/cell well) [1]: 4420
cyclic AMP; 5C9 1.0 µg/mL + TSH (fmol/cell well) [1]: 1910
cyclic AMP; 5C9 10 µg/mL + TSH (fmol/cell well) [1]: 1250
cyclic AMP; 5C9 100 µg/mL + TSH (fmol/cell well) [1]: 1270
cyclic AMP; 5C9 100 µg/mL only (fmol/cell well) [1]: 523
cyclic AMP; 5C9 0.01 µg/mL + TSH (fmol/cell well) [2]: 13100
cyclic AMP; 5C9 0.1 µg/mL + TSH (fmol/cell well) [2]: 6330
cyclic AMP; 5C9 1.0 µg/mL + TSH (fmol/cell well) [2]: 2640
cyclic AMP; 5C9 10 µg/mL + TSH (fmol/cell well) [2]: 1910
cyclic AMP; 5C9 100 µg/mL + TSH (fmol/cell well) [2]: 1610
cyclic AMP; 5C9 100 µg/mL only (fmol/cell well) [2]: 300
Mutated/wild type (%); 5C9 0.01 µg/mL + TSH [3]: 95%
Mutated/wild type (%); 5C9 0.1 µg/mL + TSH [3]: 134%
Mutated/wild type (%); 5C9 1.0 µg/mL + TSH [3]: 168%
Mutated/wild type (%); 5C9 10 µg/mL + TSH [3]: 172%
Mutated/wild type (%); 5C9 100 µg/mL + TSH [3]: 140%
Mutated/wild type (%); 5C9 100 µg/mL only [3]: 135%
cyclic AMP; 5C9 0.01 µg/mL + TSH (fmol/cell well) [3]: 11700
cyclic AMP; 5C9 0.1 µg/mL + TSH (fmol/cell well) [3]: 9510
cyclic AMP; 5C9 1.0 µg/mL + TSH (fmol/cell well) [3]: 6200
cyclic AMP; 5C9 10 µg/mL + TSH (fmol/cell well) [3]: 3090
cyclic AMP; 5C9 100 µg/mL + TSH (fmol/cell well) [3]: 3110
cyclic AMP; 5C9 100 µg/mL only (fmol/cell well) [3]: 264
cyclic AMP; 5C9 0.01 µg/mL + TSH (fmol/cell well) [4]: 12300
cyclic AMP; 5C9 1.0 µg/mL + TSH (fmol/cell well) [4]: 3700
cyclic AMP; 5C9 10 µg/mL + TSH (fmol/cell well) [4]: 1800
cyclic AMP; 5C9 100 µg/mL + TSH (fmol/cell well) [4]: 2220
cyclic AMP; 5C9 100 µg/mL only (fmol/cell well) [4]: 195
Mutated/wild type (%); 5C9 0.01 µg/mL + TSH [5]: 117%
Mutated/wild type (%); 5C9 0.1 µg/mL + TSH [5]: 73%
Mutated/wild type (%); 5C9 1.0 µg/mL + TSH [5]: 43%
Mutated/wild type (%); 5C9 10 µg/mL + TSH [5]: 44%
Mutated/wild type (%); 5C9 100 µg/mL + TSH [5]: 77%
Mutated/wild type (%); 5C9 100 µg/mL only [5]: 159%
cyclic AMP; 5C9 0.01 µg/mL + TSH (fmol/cell well) [5]: 15900
cyclic AMP; 5C9 0.1 µg/mL + TSH (fmol/cell well) [5]: 6370
cyclic AMP; 5C9 1.0 µg/mL + TSH (fmol/cell well) [5]: 1940
cyclic AMP; 5C9 10 µg/mL + TSH (fmol/cell well) [5]: 1060
cyclic AMP; 5C9 100 µg/mL + TSH (fmol/cell well) [5]: 1070
cyclic AMP; 5C9 100 µg/mL only (fmol/cell well) [5]: 337
cyclic AMP; 5C9 0.01 µg/mL + TSH (fmol/cell well) [6]: 13600
cyclic AMP; 5C9 0.1 µg/mL + TSH (fmol/cell well) [6]: 8700
cyclic AMP; 5C9 1.0 µg/mL + TSH (fmol/cell well) [6]: 4540
cyclic AMP; 5C9 10 µg/mL + TSH (fmol/cell well) [6]: 2390
cyclic AMP; 5C9 100 µg/mL + TSH (fmol/cell well) [6]: 1390
cyclic AMP; 5C9 100 µg/mL only (fmol/cell well) [6]: 212
Mutated/wild type (%); 5C9 0.01 µg/mL + TSH [7]: 34%
Mutated/wild type (%); 5C9 0.1 µg/mL + TSH [7]: 19%
Mutated/wild type (%); 5C9 1.0 µg/mL + TSH [7]: 43%
Mutated/wild type (%); 5C9 10 µg/mL + TSH [7]: 30%
Mutated/wild type (%); 5C9 100 µg/mL + TSH [7]: 37%
Mutated/wild type (%); 5C9 100 µg/mL only [7]: 200%
cyclic AMP; 5C9 0.01 µg/mL + TSH (fmol/cell well) [7]: 6620
cyclic AMP; 5C9 0.1 µg/mL + TSH (fmol/cell well) [7]: 1940
cyclic AMP; 5C9 1.0 µg/mL + TSH (fmol/cell well) [7]: 1130
cyclic AMP; 5C9 10 µg/mL + TSH (fmol/cell well) [7]: 357
cyclic AMP; 5C9 100 µg/mL + TSH (fmol/cell well) [7]: 484
cyclic AMP; 5C9 100 µg/mL only (fmol/cell well) [7]: 423
cyclic AMP; 5C9 0.01 µg/mL + TSH (fmol/cell well) [8]: 19500
cyclic AMP; 5C9 0.1 µg/mL + TSH (fmol/cell well) [8]: 10500
cyclic AMP; 5C9 1.0 µg/mL + TSH (fmol/cell well) [8]: 2620
cyclic AMP; 5C9 10 µg/mL + TSH (fmol/cell well) [8]: 1190
cyclic AMP; 5C9 100 µg/mL + TSH (fmol/cell well) [8]: 1320
cyclic AMP; 5C9 100 µg/mL only (fmol/cell well) [8]: 211

average % binding of labelled tracer [9]: 20%
Cyclic AMP produced; 5C9 0.01 µg/mL + TSH (fmol/cell well) [10]: 24200
Cyclic AMP produced; 5C9 0.1 µg/mL + TSH (fmol/cell well) [10]: 2870
Cyclic AMP produced; 5C9 1.0 µg/mL + TSH (fmol/cell well) [10]: 561
Cyclic AMP produced; 5C9 10 µg/mL + TSH (fmol/cell well) [10]: 434
Cyclic AMP produced; 5C9 100 µg/mL + TSH (fmol/cell well) [10]: 134
Cyclic AMP produced; 5C9 100 µg/mL only (fmol/cell well) [10]: 520
Mutated/wild type (%); 5C9 0.01 µg/mL + TSH [10]: 145%
Mutated/wild type (%); 5C9 0.1 µg/mL + TSH [10]: 82%
Mutated/wild type (%); 5C9 1.0 µg/mL + TSH [10]: 124%
Mutated/wild type (%); 5C9 10 µg/mL + TSH [10]: 150%
Mutated/wild type (%); 5C9 100 µg/mL + TSH [10]: 60%
Mutated/wild type (%); 5C9 100 µg/mL only [10]: 222%
Cyclic AMP produced; 5C9 0.01 µg/mL + TSH (fmol/cell well) [11]: 16700
Cyclic AMP produced; 5C9 0.1 µg/mL + TSH (fmol/cell well) [11]: 3510
Cyclic AMP produced; 5C9 1.0 µg/mL + TSH (fmol/cell well) [11]: 454
Cyclic AMP produced; 5C9 10 µg/mL + TSH (fmol/cell well) [11]: 289
Cyclic AMP produced; 5C9 100 µg/mL + TSH (fmol/cell well) [11]: 223
Cyclic AMP produced; 5C9 100 µg/mL only (fmol/cell well) [11]: 234
Cyclic AMP produced; 5C9 0.01 µg/mL + TSH (fmol/cell well) [12]: 8170
Cyclic AMP produced; 5C9 0.1 µg/mL + TSH (fmol/cell well) [12]: 7310
Cyclic AMP produced; 5C9 1.0 µg/mL + TSH (fmol/cell well) [12]: 3570
Cyclic AMP produced; 5C9 10 µg/mL + TSH (fmol/cell well) [12]: 1900
Cyclic AMP produced; 5C9 100 µg/mL + TSH (fmol/cell well) [12]: 894
Cyclic AMP produced; 5C9 100 µg/mL only (fmol/cell well) [12]: 134
Mutated/wild type (%); 5C9 0.01 µg/mL + TSH [12]: 65%
Mutated/wild type (%); 5C9 0.1 µg/mL + TSH [12]: 168%
Mutated/wild type (%); 5C9 1.0 µg/mL + TSH [12]: 519%
Mutated/wild type (%); 5C9 10 µg/mL + TSH [12]: 302%
Mutated/wild type (%); 5C9 100 µg/mL + TSH [12]: 126%
Mutated/wild type (%); 5C9 100 µg/mL only [12]: 68%
Cyclic AMP produced; 5C9 0.01 µg/mL + TSH (fmol/cell well) [13]: 12600
Cyclic AMP produced; 5C9 0.1 µg/mL + TSH (fmol/cell well) [13]: 4350
Cyclic AMP produced; 5C9 1.0 µg/mL + TSH (fmol/cell well) [13]: 688
Cyclic AMP produced; 5C9 10 µg/mL + TSH (fmol/cell well) [13]: 630
Cyclic AMP produced; 5C9 100 µg/mL + TSH (fmol/cell well) [13]: 712
Cyclic AMP produced; 5C9 100 µg/mL only (fmol/cell well) [13]: 196
Cyclic AMP produced; 5C9 0.01 µg/mL + TSH (fmol/cell well) [14]: 5960
Cyclic AMP produced; 5C9 0.1 µg/mL + TSH (fmol/cell well) [14]: 278
Cyclic AMP produced; 5C9 1.0 µg/mL + TSH (fmol/cell well) [14]: 360
Cyclic AMP produced; 5C9 10 µg/mL + TSH (fmol/cell well) [14]: 482
Cyclic AMP produced; 5C9 100 µg/mL + TSH (fmol/cell well) [14]: 354
Cyclic AMP produced; 5C9 100 µg/mL only (fmol/cell well) [14]: 280
Mutated/wild type (%); 5C9 0.01 µg/mL + TSH [14]: 39%
Mutated/wild type (%); 5C9 0.1 µg/mL + TSH [14]: 6%
Mutated/wild type (%); 5C9 1.0 µg/mL + TSH [14]: 30%
Mutated/wild type (%); 5C9 10 µg/mL + TSH [14]: 49%
Mutated/wild type (%); 5C9 100 µg/mL + TSH [14]: 59%
Mutated/wild type (%); 5C9 100 µg/mL only [14]: 103%
Cyclic AMP produced; 5C9 0.01 µg/mL + TSH (fmol/cell well) [15]: 15400
Cyclic AMP produced; 5C9 0.1 µg/mL + TSH (fmol/cell well) [15]: 4700
Cyclic AMP produced; 5C9 1.0 µg/mL + TSH (fmol/cell well) [15]: 1180
Cyclic AMP produced; 5C9 10 µg/mL + TSH (fmol/cell well) [15]: 984
Cyclic AMP produced; 5C9 100 µg/mL + TSH (fmol/cell well) [15]: 602
Cyclic AMP produced; 5C9 100 µg/mL only (fmol/cell well) [15]: 272
% of labelled protein bound [16]: 13%
B1: 5C9 IgG (human monoclonal autoantibody to the TSHR) (antibody, from another filing, V domains shown)
VH: EVQLVESGGGLIQPGGSLRLSCAASGFTVSSNYMSWVRQAPGKGLEWVSVTYSGGSTSYADSVKGRFTISRDNSKNTLYLQMNSLRAEDTAVYYCARGGRYCSSISCYARSGCDYWGQGTLVTVSS
VL: AIQMTQSPSSLSASVGDRVTITCRASQSISNYLNWYQQKPGKAPKLLIYAASSLQSGVPSRFSGSGSGTDFTLTISSLQPEDFATYYCQQSYSSPSTTFGQGTKLEIK
